# Source: patent publication US8039438B2, “Synthetic peptides that cause F-actin bundling and block actin depolymerization” (The Regents of the University of California, priority 2003, dated 2011)
# Columns and labels:
# rabbit muscle actin = biological target: T1, rabbit muscle actin (Oryctolagus cuniculus, UniProt P68135); assay: In vitro bundling of actin by peptides (co-polymerization, differential centrifugation, SDS gel); assay type: biochemical
# T1 construct: Purified rabbit muscle actin (Cytoskeleton Inc., Denver, Mo.); purchased Cytoskeleton Inc; host or cells: rabbit muscle
# Procedure: The peptides in Table 2 were added to polymerised actin in vitro at different molar ratios. Centrifugation was used to separate fractions containing F-actin, G-actin and bundled actin, which were then run out on […]. Purified rabbit muscle actin (Cytoskeleton Inc., Denver, Mo.) was depolymerized in Low Salt Buffer [LSB; 5 mM Tris-HCl, pH 8.0, 0.2 mM CaCl2, 0.2 mM ATP, 0.5 mM DTT, mM sucrose) for 1 h on ice and denucleated by centrifugation for 1 h at 100,000×g, 4° C. 13 μM monomeric actin was polymerized in vitro by addition of 1/50 vol. […] The samples were centrifuged for 15 min at 10,000×g at room temperature to pellet “bundled filaments”. The resulting supernatant was centrifuged for 1 h at 100,000×g at room temperature to separate F-actin filaments […]. The fractions were boiled in SDS-sample buffer and analyzed on a 10% SDS-Polyacrylamide gel stained with Coomassie.
# MCF7 cells = assay: Cytokinesis in MCF7 cells imaged after addition of peptide; assay type: cell-based; conditions: MCF7 cells electroporated with GFP-actin, peptide in DMSO, imaged up to 4 hours
# Procedure: MCF7 cells were electroporated with GFP-actin and imaged (image not shown). After addition of peptide in DMSO, the MCF7 cells were continuously imaged for up to 4 hours. […] The actin filaments within the cells were observed by fluorescence and had the appearance of spikes. Thus it appears that treatment by the active peptide results in inhibition of cytokinesis and blocks cell division.
# MDA 231 cells = assay: Actin reorganization in MDA 231 cells electroporated with peptide, rhodamine-phalloidin stained; assay type: cell-based, human
# Procedure: Referring now to FIG. 2, it can be shown that treatment with an active peptide results in actin organization in human mammary epithelial tumor cells. MDA 231 cells were electroporated with SS1 (panel A) or SS12 (panel B), fixed, and rhodamine-phalloidin stained. Control epithelial tumor cells were treated with SS1 (SEQ ID NO: 9) resulting in no effect on actin-filled lamellipodia (or ruffling) characteristic of crawling cells.
# MDA 231 cells are a particularly aggressive tumor cell line crawling and moving from between tissues.
# [1] = biological target: T2, purified rabbit muscle actin (Oryctolagus cuniculus, UniProt P68135); assay: Negative stain electron microscopy of actin polymerized in presence of peptide; assay type: biochemical; conditions: co-polymerization, molar ratio peptide:actin=2, negative stain electron microscopy
# T2 construct: purified rabbit muscle actin in vitro were visualized by negative stain electron microscopy; from tissue; host or cells: rabbit muscle
# Description: The actin bundles caused by co-polymerization of SS12 peptide with purified rabbit muscle actin in vitro were visualized by negative stain electron microscopy (FIG. 5). The bundles still show overall filamenteous structure about 3 times the width of actin filaments polymerized in vitro in the absence of SS12 peptide (FIG. 5A, B). The surface of the bundles is not smooth, but irregular, resembling attempts to branch or attachments of short actin bundles to the sides of the long ones (FIG. 5C). The peptide-bundled actin filaments are much shorter than the control filaments as visualized with rhodamine-phalloidin by fluorescence microscopy (data not shown).
# Purified rabbit actin was polymerized in the presence or absence of the SS12 peptide and by absorption applied to a carbon coated copper grid. Negative contrastation was carried out with Pb-citrate and the dried grid was viewed in an Electron microscope at high magnifications (12,000× and 65,000×). […] Higher magnification identified a “modulated” decoration of the otherwise smooth filaments.
# actin/pyrene-actin = actin/pyrene-actin (Oryctolagus cuniculus, UniProt P68135); assay: Actin/pyrene-actin polymerization fluorescence (nucleating or capping activity); assay type: biochemical; conditions: time-dependent fluorescence increase; data not shown
# Description: Upon binding to ActA, the Arp2/3 complex has enhanced nucleating activity for actin polymerization (Skoble J, Portnoy D A, Welch M D, Three regions within ActA promote Arp2/3 complex-mediated actin nucleation and Listeria monocytogenes motility; J Cell Biol. […] Aug. 7; 150(3):527-38). We tested a possible involvement of the homologous sequence on nucleating or capping activity by following the time-dependent fluorescence increase upon actin/pyrene-actin polymerization in the presence of the synthetic peptide SS12.
# [2] = test system: dextran-labeled electroporated cells; assay: Change in number of dextran-labeled cells after electroporation with peptide; assay type: cell-based
sequence,measurement,setting,value
GIVRKWISRFEVWPYL (SS12 active synthetic peptide),bundling of actin during in vitro polymerization,rabbit muscle actin,most active
same,bundled actin upon inducing polymerization,"rabbit muscle actin; 1:1 molar ratio peptide:actin, polymerization induced (PI +), FIGS. 6C, 6D",the bulk of the actin is bundled
same,bundled actin with peptide alone,"rabbit muscle actin; 1:1 molar ratio peptide:actin, polymerization not induced, FIGS. 6C, 6D",half of the actin bundled
same,In vitro actin bundling activity,"rabbit muscle actin; Tables 2 and 3, peptide co-polymerized with actin in vitro",active
same,free F-actin band,"rabbit muscle actin; molar ratio 10:1, FIG. 6E",very small bands
same,free F-actin band,"rabbit muscle actin; molar ratio 100:1, FIG. 6E lane 6",clearly no band of free F-actin
same,form of actin,"rabbit muscle actin; molar ratio peptide to actin 50, FIG. 6F",all of the actin is in the bundled form
same,activity designation of the peptide in the sequence list (active / less active / inactive),rabbit muscle actin; summary sequence table,SS12 active
same,cytokinesis and nuclear division,MCF7 cells,cytokinesis but not nuclear division was blocked
same,cell movement,MDA 231 cells; MDA 231 cells after peptide treatment,ceased movement
same,effect on actin-filled lamellipodia,MDA 231 cells; MDA 231 cells electroporated with peptide,no longer have lamellipodia
same,width of bundles relative to actin filaments polymerized in the absence of peptide,[1],about 3 times the width
same,nucleating or capping activity,actin/pyrene-actin,did not show any nucleating or capping activity
same,number of cells after 24 hours,[2]; compared to cells treated with the inactive peptide,decrease in the number of cells
same,time over which cell division was inhibited,"[2]; observation period 36 hours, cells with 24 hr cell cycle",36 h
